Data on two substances can be found in publication PMC12547689.

In assay [1] the target is GFP-diS2 (sfGFP H148C V206F) (Aequorea victoria) [GFP: P42212]. The experiment in a line: fluorescence emission ratio (CRO–O^− : CRO–OH excitation); percentage of dimer after incubation with CuSO4 (1 mM; CuCl2 gave no discernible change for GFP-diS2), 50 mM Tris–HCl pH 8; monomer to disulphide-linked dimer.
For assay [2] the target is unchanged. The experiment in a line: fluorescence emission ratio (CRO–O^− : CRO–OH excitation); dimerisation kinetics with 1 mM CuSO4, 50 mM Tris–HCl pH 8, plate reader, excitation 388 nm and 483 nm, emission 516 nm; second order A + A → A2; apparent KD, estimated, non-equilibrium (covalent disulphide dimer); monomer to dimer.
Assay [3] concerns the target GFP-diS1 (sfGFP H148C) (Aequorea victoria) [GFP: P42212]. The assay is described as follows: fluorescence emission ratio (CRO–O^− : CRO–OH excitation); percentage of dimer after incubation with CuSO4 (1 mM; CuCl2 gave no discernible change for GFP-diS2), 50 mM Tris–HCl pH 8; monomer to disulphide-linked dimer.
For assay [4] the target is unchanged. The assay is described as follows: fluorescence emission ratio (CRO–O^− : CRO–OH excitation); dimerisation kinetics with 1 mM CuSO4, 50 mM Tris–HCl pH 8, plate reader, excitation 388 nm and 483 nm, emission 516 nm; second order A + A → A2; apparent KD, estimated, non-equilibrium (covalent disulphide dimer); monomer to dimer.

As for “GFP-diS2 (sfGFP H148C V206F) (from UniProt P42212 1-238)”, the percent dimer with CuSO4 in assay [1] turned out to be 80%. The Kd in assay [2] is 4.6 µM.
As to “GFP-diS1 (sfGFP H148C) (from UniProt P42212 1-238)”, in assay [3], the percent dimer after 1 h with CuSO4 turned out to be 55%. Moreover, the Kd in assay [4] is more than 25 µM.
